The record followed here is the supplement of paper PMC9112550, “Optimization of the antimicrobial peptide Bac7 by deep mutational scanning” (BMC Biology, 2022).
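Also: peptides expressed intracellularly from a pBAD plasmid library in pooled LB shake-flask culture, induced with 0.3% L-arabinose, DNA abundance read by NGS, three biological replicates, DESeq2 with apeglm shrinkage.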

For this series, the system named is Escherichia coli TOP10. Kind of series: shrunken log2 fold change of peptide-encoding DNA abundance (4.5 h post-induction vs induction); higher = less antimicrobial activity (less host growth inhibition). Particulars: time post-induction: 4.5 h; library: site-saturation at positions 5, 18, 19, 20.
In the case of RRIRCRPPRLPRPRPRPSESPRP, the “shrunken log2 fold change” value stood at 0.258.
Next, RRIRHRPPRLPRPRPRPETPPRP: 0.561.
As for RRIRWRPPRLPRPRPRPVDYPRP, the “shrunken log2 fold change” value is 0.0136.
RRIRVRPPRLPRPRPRPRCLPRP: the “shrunken log2 fold change” value was -0.16.
RRIRVRPPRLPRPRPRPYTVPRP: the “shrunken log2 fold change” value is -0.0784.
Next, RRIRLRPPRLPRPRPRPLSMPRP: -0.163; RRIRVRPPRLPRPRPRPQQWPRP: 0.0185.
Next, RRIRTRPPRLPRPRPRPNAPPRP: -0.0472; RRIRNRPPRLPRPRPRPFQEPRP: -0.0276; RRIRVRPPRLPRPRPRPVQVPRP: -0.269.
Consider RRIRERPPRLPRPRPRPQQAPRP, for which the “shrunken log2 fold change” value turned out to be 0.01.
Next, RRIRWRPPRLPRPRPRPPMAPRP: 0.598.
As to RRIRDRPPRLPRPRPRPSTGPRP, the “shrunken log2 fold change” value was -0.313.
In the case of RRIRARPPRLPRPRPRPYIWPRP, the “shrunken log2 fold change” value is -0.543.
For the sequence RRIRFRPPRLPRPRPRPSVDPRP, the “shrunken log2 fold change” value is -0.011.
RRIRERPPRLPRPRPRPDYGPRP: the “shrunken log2 fold change” value is -0.015.
Next, RRIRLRPPRLPRPRPRPTPGPRP: 0.557.
Next, RRIRSRPPRLPRPRPRPMEMPRP: -0.0909; RRIRQRPPRLPRPRPRPWVDPRP: 0.0234; RRIRHRPPRLPRPRPRPKKMPRP: -0.132.
For the sequence RRIRPRPPRLPRPRPRPWECPRP, the “shrunken log2 fold change” value was -0.0846.
On to RRIRSRPPRLPRPRPRPVCVPRP, for which the “shrunken log2 fold change” value was 0.0943.
Take RRIRPRPPRLPRPRPRPGQYPRP: the “shrunken log2 fold change” value came to 0.0431.
Next, RRIRFRPPRLPRPRPRPHGGPRP: 0.0953.
As for RRIRQRPPRLPRPRPRPVHAPRP, the “shrunken log2 fold change” value was determined as 0.0261.
In the case of RRIRHRPPRLPRPRPRPTFFPRP, the “shrunken log2 fold change” value was found to be 0.0852.
Consider RRIRLRPPRLPRPRPRPIAHPRP, for which the “shrunken log2 fold change” value was -0.058.
Next, RRIRWRPPRLPRPRPRPCCCPRP: 0.129; RRIRGRPPRLPRPRPRPFCVPRP: 0.392.
Turning to RRIRGRPPRLPRPRPRPGSIPRP, the “shrunken log2 fold change” value is 0.185.
As to RRIRERPPRLPRPRPRPEITPRP, the “shrunken log2 fold change” value was -0.045.
On to RRIRLRPPRLPRPRPRPGMLPRP, for which the “shrunken log2 fold change” value was determined as 0.0285.
For RRIRFRPPRLPRPRPRPQFRPRP, the “shrunken log2 fold change” value was -0.174.
RRIRGRPPRLPRPRPRPQGLPRP: the “shrunken log2 fold change” value came to 0.335.
On to RRIRERPPRLPRPRPRPIMLPRP, for which the “shrunken log2 fold change” value is -0.227.
Consider RRIRVRPPRLPRPRPRPMDTPRP, for which the “shrunken log2 fold change” value is -0.171.
As for RRIRFRPPRLPRPRPRPMMFPRP, the “shrunken log2 fold change” value stood at 0.126.
As for RRIRGRPPRLPRPRPRPLCFPRP, the figure is 0.705.
With RRIRGRPPRLPRPRPRPPAWPRP, the “shrunken log2 fold change” value is 1.34.
Regarding RRIRKRPPRLPRPRPRPELFPRP, the “shrunken log2 fold change” value was found to be 0.155.
As for RRIRFRPPRLPRPRPRPCDVPRP, the figure is 0.0119.
In the case of RRIRCRPPRLPRPRPRPDQNPRP, the “shrunken log2 fold change” value is -0.138.
Turning to RRIRQRPPRLPRPRPRPKQWPRP, the “shrunken log2 fold change” value came out at 0.293.
With RRIRERPPRLPRPRPRPPEIPRP, the “shrunken log2 fold change” value was 0.115.
Take RRIRGRPPRLPRPRPRPYLWPRP: the “shrunken log2 fold change” value worked out at 0.146.
For RRIRDRPPRLPRPRPRPQWHPRP, the “shrunken log2 fold change” value was -0.292.
Regarding RRIRTRPPRLPRPRPRPTNYPRP, the “shrunken log2 fold change” value was -0.857.
For RRIRNRPPRLPRPRPRPLCVPRP, the “shrunken log2 fold change” value is -0.197.
Regarding RRIRYRPPRLPRPRPRPYETPRP, the “shrunken log2 fold change” value amounted to 0.112.
For the sequence RRIRVRPPRLPRPRPRPARFPRP, the “shrunken log2 fold change” value turned out to be 0.16.
